Where two headings read alike, the source gives them in different places.
How the values were obtained:
[1] = target: T1, human Argonaute-2 loaded with miR-122 (hAgo2:miR-122) (Homo sapiens, UniProt Q9UKV8 1-859); assay: EMSA
[2] = target: T1, human Argonaute-2 loaded with miR-122 …; assay: EMSA; remark: listed apart in the source

T1 sequence (Q9UKV8 whole entry): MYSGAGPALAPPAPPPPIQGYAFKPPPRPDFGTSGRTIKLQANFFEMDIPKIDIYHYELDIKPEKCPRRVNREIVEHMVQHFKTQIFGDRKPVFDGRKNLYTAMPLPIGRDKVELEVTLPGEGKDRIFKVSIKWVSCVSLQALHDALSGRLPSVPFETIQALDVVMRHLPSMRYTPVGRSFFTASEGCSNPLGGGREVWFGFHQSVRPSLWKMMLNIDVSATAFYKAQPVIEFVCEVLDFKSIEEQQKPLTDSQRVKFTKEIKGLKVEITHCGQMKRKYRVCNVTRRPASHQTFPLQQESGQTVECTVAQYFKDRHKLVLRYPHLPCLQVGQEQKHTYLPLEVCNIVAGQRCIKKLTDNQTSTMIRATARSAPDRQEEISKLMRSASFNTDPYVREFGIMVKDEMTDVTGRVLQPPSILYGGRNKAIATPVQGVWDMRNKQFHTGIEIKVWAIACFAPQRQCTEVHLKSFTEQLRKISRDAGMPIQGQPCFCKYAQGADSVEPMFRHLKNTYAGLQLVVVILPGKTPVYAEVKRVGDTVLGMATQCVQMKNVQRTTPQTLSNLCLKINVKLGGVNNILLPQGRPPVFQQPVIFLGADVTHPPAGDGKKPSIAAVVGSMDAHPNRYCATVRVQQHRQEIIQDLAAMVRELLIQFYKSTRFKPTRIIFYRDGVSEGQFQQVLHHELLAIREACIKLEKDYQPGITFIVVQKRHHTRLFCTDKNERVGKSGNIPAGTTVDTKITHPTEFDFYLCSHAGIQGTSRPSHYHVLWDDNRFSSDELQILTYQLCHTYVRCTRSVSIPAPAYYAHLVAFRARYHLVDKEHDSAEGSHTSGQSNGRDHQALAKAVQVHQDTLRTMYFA

B1: miR-122 guide / HCV S2p3,4 1-42 target (mixed)
RNA 1: UGGAGUGUGACAAUGGUGUUUGU
RNA 2: ACCUGCCCCUAAUAGGGGCGACACUCCGCCAUGAAUCACAGC
modifications: 5'-phosphate on miR-122 guide
Kd [1]: 0.063 ± 0.01 nM

B2: miR-122 guide / HCV 1-42 WT target (mixed)
RNA 1: UGGAGUGUGACAAUGGUGUUUGU
RNA 2: ACCUGCCCCUAAUAGGGGCGACACUCCGCCAUGAAUCACUCC
modifications: 5'-phosphate on miR-122 guide
Kd [2]: 0.25 ± 0.031 nM

— paper PMC6547439
